In patent US20130324465A1 (Sanofi, published 2013):
Where “and” joins values, the source holds several entries; their conditions need not be identical. Equal entries are not always repeated.

B1: Four-arm D2 tetramer linked with 4-arm PEG of 20 kDa (receptor)
chain: RPFVEMYSEIPEIIHMTEGRELVIPCRVTSPNITVTLKKFPLDTLIPDGKRIIWDSRKGFIISNATYKEIGLLTCEATVNGHLYKTNYLTHRQT
modifications: free cysteine coupled to a 4-arm 20 kDa maleimide PEG
B2: PEG-linked D2 dimer, 2 kDa linker (receptor)
chain: RPFVEMYSEIPEIIHMTEGRELVIPCRVTSPNITVTLKKFPLDTLIPDGKRIIWDSRKGFIISNATYKEIGLLTCEATVNGHLYKTNYLTHRQT
modifications: free cysteine of partially-reduced monomer coupled to a homobifunctional PEG linker of 2 kDa
B3: Four-arm D2 tetramer linked with 4-arm PEG of 10 kDa (receptor)
chain: RPFVEMYSEIPEIIHMTEGRELVIPCRVTSPNITVTLKKFPLDTLIPDGKRIIWDSRKGFIISNATYKEIGLLTCEATVNGHLYKTNYLTHRQT
modifications: free cysteine coupled to a 4-arm 10 kDa PEG
B4: D2-Cys protein (D2 domain of FLT-1 with HPC4 tag and C-terminal cysteine), monomer (receptor)
chain: RPFVEMYSEIPEIIHMTEGRELVIPCRVTSPNITVTLKKFPLDTLIPDGKRIIWDSRKGFIISNATYKEIGLLTCEATVNGHLYKTNYLTHRQT
notes: Expressed in HEK293-EBNA cells and purified on an HPC4 antibody column; glycosylated; also called D2 monomer; TCEP-reduced D2 monomer
B5: PEG-linked D2 dimer, 5 kDa linker (receptor)
chain: RPFVEMYSEIPEIIHMTEGRELVIPCRVTSPNITVTLKKFPLDTLIPDGKRIIWDSRKGFIISNATYKEIGLLTCEATVNGHLYKTNYLTHRQT
modifications: free cysteine of partially-reduced monomer coupled to a homobifunctional PEG linker of 5 kDa
B6: disulfide-linked D2 dimer (D2 domain with HPC4 tag and C-terminal cysteine) (receptor)
chain: RPFVEMYSEIPEIIHMTEGRELVIPCRVTSPNITVTLKKFPLDTLIPDGKRIIWDSRKGFIISNATYKEIGLLTCEATVNGHLYKTNYLTHRQT
modifications: disulfide-linked dimer, presumably via the C-terminal cysteine
notes: Two preparations are kept under one id; One formed spontaneously and was SEC-purified from PEGylation reactions or conditioned medium, without copper oxidation ('D2 HPC4 eluate Pk B', 'D2 Pk B'); also called Cu-oxidized dimer; D2 HPC4 eluate Pk B
B7: PEG-linked D2 dimer, 0.6 kDa linker (receptor)
chain: RPFVEMYSEIPEIIHMTEGRELVIPCRVTSPNITVTLKKFPLDTLIPDGKRIIWDSRKGFIISNATYKEIGLLTCEATVNGHLYKTNYLTHRQT
modifications: free cysteine of partially-reduced monomer coupled to a homobifunctional PEG linker of 0.6 kDa (BM(PEG)3)
B8: sFLT01 (D2-9Gly-Fc) (Fc fusion)
chain: RPFVEMYSEIPEIIHMTEGRELVIPCRVTSPNITVTLKKFPLDTLIPDGKRIIWDSRKGFIISNATYKEIGLLTCEATVNGHLYKTNYLTHRQTGGGGGGGGG

What was measured:
VEGF165 [1] = target: VEGF165 (UniProt P15692); assay: competitive VEGF ELISA; panel B
VEGF165 [2] = target: VEGF165 (UniProt P15692); assay: competitive VEGF ELISA; panel A
VEGF165 [3] = target: VEGF165 (UniProt P15692); assay: VEGF binding assay
VEGF165 [4] = target: VEGF165 (UniProt P15692); assay: VEGF binding assay; after 56 days incubation at 45 C
VEGF165 [5] = target: T1, VEGF165 (UniProt P15692 27-191); assay: Biacore; 100RU VEGF
T1 chain: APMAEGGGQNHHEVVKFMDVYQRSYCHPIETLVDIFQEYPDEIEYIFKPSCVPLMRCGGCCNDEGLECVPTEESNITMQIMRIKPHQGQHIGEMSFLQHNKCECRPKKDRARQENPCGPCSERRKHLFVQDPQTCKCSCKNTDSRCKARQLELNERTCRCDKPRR

VEGF165 [6] = target: T1, VEGF165; assay: Biacore; 4000RU VEGF
VEGF165 [7] = target: T1, VEGF165; assay: competitive VEGF ELISA; panel A
VEGF165 [8] = target: T1, VEGF165; assay: Biacore; 500RU VEGF
VEGF165 [9] = target: T2, VEGF165 (UniProt P15692-4 27-191); assay: Biacore
T2 construct: Both are treated as one molecule; also called recombinant VEGF (R&D Systems); immobilized VEGF

VEGF165 [10] = target: T2, VEGF165; assay: competitive VEGF ELISA: binding to 10 pM recombinant VEGF, free VEGF measured by ELISA
Method: (§1) Dimers wherein two D2 domains of sFLT are coupled via PEG linkers were prepared by reaction of the partially-reduced monomer with homobifunctional PEGs. Products were isolated by SEC (FIG. 5) and analyzed for VEGF binding affinity using competitive ELISA (FIG. 9). VEGF165 binding of three SEC purified D2 domain constructs including dimers prepared with 0.6, 2 and 5 kDa linkers and as well as the 10 and 20 kDa 4-arm PEG conjugates as described in Example 1 was determined. The assay was performed by binding to 10 pM recombinant VEGF (R&D Systems) in phosphate-buffered saline. The sample concentrations ranged from 0.0763 to 156 pM. Following binding, the free VEGF concentration was determined by a VEGF-specific ELISA (R&D Systems). […] D2 monomer purified directly from medium (“D2 HPC4 eluate Pk C”) had no detectable binding to VEGF165.

VEGF165 [11] = target: T2, VEGF165; assay: competitive VEGF ELISA
Method: Dimer was prepared using 100 uM CuCl₂ and the products assayed for VEGF binding activity by competitive VEGF ELISA. […] This value was similar to that obtained for dimers obtained without copper oxidation (FIG. 5). This molecule lacks the hinge region and Fc domain of sFLT01 and represents a minimal high affinity VEGF binding entity. Its low MW may provide advantages in localized delivery, including higher diffusion through tissue, more rapid systemic clearance thus reducing potential side effects of VEGF antagonism, and greater stability upon formulation into slow-release depots.
Dimers wherein two D2 domains of sFLT are coupled via PEG linkers were prepared by reaction of the partially-reduced monomer with homobifunctional PEGs. Products were isolated by SEC (FIG. 5) and analyzed for VEGF binding affinity using competitive ELISA (FIG. 9). VEGF165 binding of three SEC purified D2 domain constructs including dimers prepared with 0.6, 2 and 5 kDa linkers and as well as the 10 and 20 kDa 4-arm PEG conjugates as described in Example 1 was determined. The assay was performed by binding to 10 pM recombinant VEGF (R&D Systems) in phosphate-buffered saline. The sample concentrations ranged from 0.0763 to 156 pM. Following binding, the free VEGF concentration was determined by a VEGF-specific ELISA (R&D Systems). […]

VEGF165 [12] = target: T1, VEGF165; assay: competitive VEGF ELISA
VEGF165 [13] = target: T1, VEGF165; assay: competitive VEGF ELISA; panel B
VEGF165 [14] = target: T2, VEGF165; assay: competitive VEGF ELISA (VEGF binding assay)
Method: as §1

VEGF165 [15] = target: T1, VEGF165; assay: VEGF binding assay

Molecule | Kd (VEGF165 [5]) | Kd (VEGF165 [6]) | EC50 (VEGF165 [7]) | Kd (VEGF165 [8]) | EC50 (VEGF165 [12]) | EC50 (VEGF165 [13]) | also measured
disulfide-linked D2 dimer (D2 domain with HPC4 tag and C-terminal cysteine) (from UniProt P17948 133-226) |  |  |  |  |  |  | EC50 (VEGF165 [1]): 0.0119 nM; EC50 (VEGF165 [2]): 0.00708 nM; EC50 (VEGF165 [3]): 0.0048 nM; EC50 (VEGF165 [4]): 0.0109 nM
D2-Cys protein (D2 domain of FLT-1 with HPC4 tag and C-terminal cysteine), monomer (from UniProt P17948 133-226) |  |  |  |  |  |  | EC50 (VEGF165 [1]): 0.172 nM and 0.254 nM
B1 | 1.5 nM | 0.17 nM | 0.00478 nM | 0.1 nM |  |  | 
B2 |  |  | 0.00579 nM |  |  |  | 
B3 | 0.84 nM | 0.35 nM | 0.00374 nM | 0.14 nM |  |  | 
B4 | 9.61 nM | 28.9 nM |  | 11.5 nM | 131 nM |  | Kd (VEGF165 [9]): ~10 nM; percent of the binding affinity of sFLT01 (VEGF165 [10]): < 3%; fold higher EC50 than sFLT01 (VEGF165 [11]): ~35 fold
B5 |  |  |  |  |  | 0.00675 nM | 
B6 | 1.69 nM | 11.4 nM |  | 0.53 nM | 8.3 nM |  | EC50 (VEGF165 [14]): 0.008 to 0.01 nM; fold higher EC50 than sFLT01 (VEGF165 [14]): 2 fold; fold higher EC50 than sFLT01 (VEGF165 [11]): 2.2 fold
B7 |  |  |  |  |  | 0.00471 nM | 
B8 | 2.5 nM | 0.8 nM | 0.0047 nM | 0.61 nM | 3.7 nM | 0.00472 nM | EC50 (VEGF165 [15]): 0.0054 nM
